Measured values as given in paper PMC8240452.

Target: SARS-CoV-2 spike receptor-binding domain (RBD) (SARS-CoV-2, UniProt P0DTC2 319-541)
Assay: 40 min incubation, immobilized aptamer

B1: SARS-CoV-2 RBD aptamer, amine-terminated (ssDNA)
DNA: CAGCACCGACCTTGTGCTTTGGGAGTGCTGGTCCAAGGGCGTTAATGGACA
modifications: 5'-NH2-(CH2)6
Work on B1 yielded a Kd of 3.4 nM.
